{"source": "patent US6730503B1", "about": "(Roche Vitamins Inc., priority 1996, dated 2004)", "type_in_all_cases": "biochemical", "key": {"[1]": {"assay": "Optimal pH, PMS-DCIP assay in buffers of various pH", "description": "The Enzymes A″ and B have a relatively wide pH range toward a lower pH, compared with the Enzymes A and A′.\nThe enzyme activity was assayed by the PMS-DCIP spectrophotometric assay using various pH buffers. The buffers were 50 mM Tris-malate-NaOH, pH 6.0, 6.5, 7.0, 7.5, 8.0 and 8.5; 50 mM glycine-NaOH, pH 9.0 and 9.5. The extinction coefficients of DCIP at pH 6.0, 6.5, 7.0, 7.5, 8.0, 8.5, 9.0 and 9.5 were taken as 10.8, 13.2, 14.5, 14.9, 15.0, 15.1, 15.1 and 15.1, respectively. […] The Enzymes A″ and B had relatively wide pH range toward lower pH, compared with the Enzymes A and A′."}, "[2]": {"assay": "Product assay with Enzyme sA2 and Enzyme A"}, "[3]": {"assay": "2KGA production by purified recombinant AADH in a reaction mixture", "settings": "1.7 mg/ml enzyme, 4% L-sorbose, 30° C., 20 hours; TLC assay", "description": "As a result, about 2 g/l 2KGA (TLC assay) was produced. […]"}}}
{"molecule": "Enzyme B: recombinant AADH of G. oxydans DSM No. 4025, amino acid sequence SEQ ID NO 8, plasmid pSS31/pSSB103R (protein, Gluconobacter oxydans; SIGNAL (1)..(23)) MNPTTLLRTSAAVLLLTAPAAFAQVTPITDELLANPPAGEWINYGRNQENYRHSPLTQITADNVGQLQLVWARGMEAGAVQVTPMIHDGVMYLANPGDVIQALDAQTGDLIWEHRRQLPAVATLNAQGDRKRGVALYGTSLYFSSWDNHLIALDMETGQVVFDVERGSGEDGLTSNTTGPIVANGVIVAGSTCQYSPYGCFISGHDSATGEELWRNHFIPQPGEEGDETWGNDFEARWMTGVWGQITYDPVTNLVFYGSTGVGPASETQRGTPGGTLYGTNTRFAVRPDTGEIVWRHQTLPRDNWDQECTFEMMVANVDVQPSAEMEGLRAINPNAATGERRVLTGAPCKTGTMWSFDAASGEFLWARDTNYTNMIASIDETGLVTVNEDAVLKELDVEYDVCPTFLGGRDWSSAALNPDTGIYFLPLNNACYDIMAVDQEFSALDVYNTSATAKLAPGFENMGRIDAIDISTGRTLWSAERPAANYSPVLSTAGGVVFNGGTDRYFRALSQETGETLWQARLATVATGQAISYELDGVQYIAIGAGGLTYGTQLNAPLAEAIDSTSVGNAIYVFALPQ", "values": [{"measurement": "Relative activity (optimal pH)", "setting": "[1]; assay pH 6.0, pH 8.0 = 100", "value": 21.0, "unit": "%"}, {"measurement": "Relative activity (optimal pH)", "setting": "[1]; assay pH 6.5, pH 8.0 = 100", "value": 51.6, "unit": "%"}, {"measurement": "Relative activity (optimal pH)", "setting": "[1]; assay pH 7.0, pH 8.0 = 100", "value": 61.6, "unit": "%"}, {"measurement": "Relative activity (optimal pH)", "setting": "[1]; assay pH 7.5, pH 8.0 = 100", "value": 75.3, "unit": "%"}, {"measurement": "Relative activity (optimal pH)", "setting": "[1]; assay pH 8.0", "value": 100.0, "unit": "%"}, {"measurement": "Relative activity (optimal pH)", "setting": "[1]; assay pH 8.5, pH 8.0 = 100", "value": 62.2, "unit": "%"}, {"measurement": "Relative activity (optimal pH)", "setting": "[1]; assay pH 9.0, pH 8.0 = 100", "value": 8.0, "unit": "%"}, {"measurement": "Relative activity (optimal pH)", "setting": "[1]; assay pH 9.5, pH 8.0 = 100", "value": 0.0, "unit": "%"}]}
{"molecule": "Enzyme A: recombinant AADH of G. oxydans DSM No. 4025, amino acid sequence SEQ ID NO 5, plasmid p24D4/pSSA102R (protein, Gluconobacter oxydans; SIGNAL (1)..(23)) MKPTSLLWASAGALALLAAPAFAQVTPVTDELLANPPAGEWISYGQNQENYRHSPLTQITTENVGQLQLVWARGMQPGKVQVTPLIHDGVMYLANPGDVIQAIDAKTGDLIWEHRRQLPNIATLNSFGEPTRGMALYGTNVYFVSWDNHLVALDTATGQVTFDVDRGQGEDMVSNSSGPIVANGVIVAGSTCQYSPFGCFVSGHDSATGEELWRNYFIPRAGEEGDETWGNDYEARWMTGAWGQITYDPVTNLVHYGSTAVGPASETQRGTPGGTLYGTNTRFAVRPDTGEIVWRHQTLPRDNWDQECTFEMMVTNVDVQPSTEMEGLQSINPNAATGERRVLTGVPCKTGTMWQFDAETGEFLWARDTNYQNMIESIDENGIVTVNEDAILKELDVEYDVCPTFLGGRDWPSAALNPDSGIYFIPLNNVCYDMMAVDQEFTSMDVYNTSNVTKLPPGKDMIGRIDAIDISTGRTLWSVERAAANYSPVLSTGGGVLFNGGTDRYFRALSQETGETLWQTRLATVASGQAISYEVDGMQYVAIAGGGVSYGSGLNSALAGERVDSTAIGNAVYVFALPQ", "values": [{"measurement": "Products from D-sorbitol in product assay", "setting": "[2]", "value": "D-glucose only"}, {"measurement": "Products from L-sorbose in product assay", "setting": "[2]", "value": 2, "unit": "KGA"}, {"measurement": "2KGA produced", "setting": "[3]", "value": "about 2 g/l"}, {"measurement": "Relative activity (optimal pH)", "setting": "[1]; assay pH 6.0, pH 8.0 = 100", "value": 6.5, "unit": "%"}, {"measurement": "Relative activity (optimal pH)", "setting": "[1]; assay pH 6.5, pH 8.0 = 100", "value": 13.0, "unit": "%"}, {"measurement": "Relative activity (optimal pH)", "setting": "[1]; assay pH 7.0, pH 8.0 = 100", "value": 33.1, "unit": "%"}, {"measurement": "Relative activity (optimal pH)", "setting": "[1]; assay pH 7.5, pH 8.0 = 100", "value": 57.7, "unit": "%"}, {"measurement": "Relative activity (optimal pH)", "setting": "[1]; assay pH 8.0", "value": 100.0, "unit": "%"}, {"measurement": "Relative activity (optimal pH)", "setting": "[1]; assay pH 8.5, pH 8.0 = 100", "value": 113.2, "unit": "%"}, {"measurement": "Relative activity (optimal pH)", "setting": "[1]; assay pH 9.0, pH 8.0 = 100", "value": 50.0, "unit": "%"}, {"measurement": "Relative activity (optimal pH)", "setting": "[1]; assay pH 9.5, pH 8.0 = 100", "value": 19.6, "unit": "%"}]}
{"molecule": "Enzyme A′: recombinant AADH of G. oxydans DSM No. 4025, amino acid sequence SEQ ID NO 6, plasmid p1E2 (protein, Gluconobacter oxydans; SIGNAL (1)..(23)) MKTSSLLVASVAALASYSSFALAQVTPVTDELLANPPAGEWISYGQNQENYRHSPLTQITTENVGQLQLVWARGMQPGKVQVTPLIHDGVMYLANPGDVIQAIDAKTGDLIWEHRRQLPNIATLNSFGEPTRGMALYGTNVYFVSWDNHLVALDTATGQVTFDVDRGQGEDMVSNSSGPIVANGVIVAGSTCQYSPFGCFVSGHDSATGEELWRNYFIPRAGEEGDETWGNDYEARWMTGVWGQITYDPVGGLVHYGSSAVGPASETQRGTTGGTMYGTNTRFAVRPETGEIVWRHQTLPRDNWDQECTFEMMVANVDVQPAADMDGVRSINPNAATGERRVLTGVPCKTGTMWQFDAETGEFLWARDTSYENIIESIDENGIVTVDESKVLTELDTPYDVCPLLLGGRDWPSAALNPDTGIYFIPLNNTCMDIEAVDQEFSSLDVYNQSLTAKMAPGKELVGRIDAIDISTGRTLWTAEREASNYAPVLSTAGGVLFNGGTDRYFRALSQETGETLWQTRLATVASGQAVSYEIDGVQYIAIGGGGTTYGSFHNRPLAEPVDSTAIGNAMYVFALPQQ", "values": [{"measurement": "Relative activity (optimal pH)", "setting": "[1]; assay pH 6.0, pH 8.0 = 100", "value": 2.1, "unit": "%"}, {"measurement": "Relative activity (optimal pH)", "setting": "[1]; assay pH 6.5, pH 8.0 = 100", "value": 9.3, "unit": "%"}, {"measurement": "Relative activity (optimal pH)", "setting": "[1]; assay pH 7.0, pH 8.0 = 100", "value": 22.5, "unit": "%"}, {"measurement": "Relative activity (optimal pH)", "setting": "[1]; assay pH 7.5, pH 8.0 = 100", "value": 46.8, "unit": "%"}, {"measurement": "Relative activity (optimal pH)", "setting": "[1]; assay pH 8.0", "value": 100.0, "unit": "%"}, {"measurement": "Relative activity (optimal pH)", "setting": "[1]; assay pH 8.5, pH 8.0 = 100", "value": 142.7, "unit": "%"}, {"measurement": "Relative activity (optimal pH)", "setting": "[1]; assay pH 9.0, pH 8.0 = 100", "value": 2.1, "unit": "%"}, {"measurement": "Relative activity (optimal pH)", "setting": "[1]; assay pH 9.5, pH 8.0 = 100", "value": 1.8, "unit": "%"}]}
{"molecule": "Enzyme A″: recombinant AADH of G. oxydans DSM No. 4025, amino acid sequence SEQ ID NO 7, plasmid p26C3 (protein, Gluconobacter oxydans; SIGNAL (1)..(23)) MKLTTLLQSSAALLVLGTIPALAQTAITDEMLANPPAGEWINYGQNQENYRHSPLTQITADNVGQLQLVWARGMEAGKIQVTPLVHDGVMYLANPGDVIQAIDAATGDLIWEHRRQLPNIATLNSFGEPTRGMALYGTNVYFVSWDNHLVALDTSTGQVVFDVDRGQGTDMVSNSSGPIVANGVIVAGSTCQYSPFGCFVSGHDSATGEELWRNTFIPRAGEEGDETWGNDYEARWMTGVWGQITYDPVGGLVHYGTSAVGPAAEIQRGTVGGSMYGTNTRFAVRPETGEIVWRHQTLPRDNWDQECTFEMMVVNVDVQPSAEMEGLHAINPDAATGERRVVTGVPCKNGTMWQFDAETGEFLWARDTSYQNLIESVDPDGLVHVNEDLVVTELEVAYEICPTFLGGRDWPSAALNPDTGIYFIPLNNACSGMTAVDQEFSSLDVYNVSLDYKLSPGSENMGRIDAIDISTGRTLWSAERYASNYAPVLSTGGGVLFNGGTDRYFRALSQETGETLWQTRLATVASGQAISYEIDGVQYVAIGRGGTSYGSNHNRALTERIDSTAIGSAIYVFALPQQ", "values": [{"measurement": "Relative activity (optimal pH)", "setting": "[1]; assay pH 6.0, pH 8.0 = 100", "value": 35.0, "unit": "%"}, {"measurement": "Relative activity (optimal pH)", "setting": "[1]; assay pH 6.5, pH 8.0 = 100", "value": 57.3, "unit": "%"}, {"measurement": "Relative activity (optimal pH)", "setting": "[1]; assay pH 7.0, pH 8.0 = 100", "value": 74.8, "unit": "%"}, {"measurement": "Relative activity (optimal pH)", "setting": "[1]; assay pH 7.5, pH 8.0 = 100", "value": 90.0, "unit": "%"}, {"measurement": "Relative activity (optimal pH)", "setting": "[1]; assay pH 8.0", "value": 100.0, "unit": "%"}, {"measurement": "Relative activity (optimal pH)", "setting": "[1]; assay pH 8.5, pH 8.0 = 100", "value": 85.6, "unit": "%"}, {"measurement": "Relative activity (optimal pH)", "setting": "[1]; assay pH 9.0, pH 8.0 = 100", "value": 46.5, "unit": "%"}, {"measurement": "Relative activity (optimal pH)", "setting": "[1]; assay pH 9.5, pH 8.0 = 100", "value": 23.9, "unit": "%"}]}
